Earlier results, collected in article PMC7154116.

Target: NTSR3/sortilin (UniProt Q99523)
UniProt Q99523, sequence (Q99523 78-755): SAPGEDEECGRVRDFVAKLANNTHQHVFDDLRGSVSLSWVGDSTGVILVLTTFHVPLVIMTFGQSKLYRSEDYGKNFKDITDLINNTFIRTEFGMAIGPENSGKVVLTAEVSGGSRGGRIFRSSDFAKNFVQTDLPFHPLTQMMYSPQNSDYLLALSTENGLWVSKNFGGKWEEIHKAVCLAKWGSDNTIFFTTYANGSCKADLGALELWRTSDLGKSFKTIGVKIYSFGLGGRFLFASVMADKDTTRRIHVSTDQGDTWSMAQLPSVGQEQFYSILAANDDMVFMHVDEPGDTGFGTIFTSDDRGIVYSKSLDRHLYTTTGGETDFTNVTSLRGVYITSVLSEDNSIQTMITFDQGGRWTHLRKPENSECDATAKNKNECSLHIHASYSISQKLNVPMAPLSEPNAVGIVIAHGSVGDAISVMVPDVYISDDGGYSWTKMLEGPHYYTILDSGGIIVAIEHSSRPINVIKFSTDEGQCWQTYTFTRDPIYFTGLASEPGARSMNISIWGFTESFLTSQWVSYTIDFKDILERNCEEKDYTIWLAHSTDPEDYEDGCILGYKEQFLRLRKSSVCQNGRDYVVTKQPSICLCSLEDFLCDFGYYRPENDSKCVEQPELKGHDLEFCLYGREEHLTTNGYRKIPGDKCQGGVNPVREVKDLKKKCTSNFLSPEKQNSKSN

Spadin propeptide fragment (from UniProt Q99523)
Kd: 8 nM
